B1: SEQ ID NO: 118: RdpA mutant L82H + V187L + F182W + R104G + V77I (protein)
chain: MHAALSPLSQRFERIAVQPLTGVLGAEITGVDLREPLDDSTWNEILDAFHTYQVIYFPGQAITNEQHIAFSRRFGPIDPVPHLKSIEGYPEVQMIRREANESGGVIGDDWHTDSTFLDAPPAAVVMRAIDVPEHGGDTGFLSMYTAWETLSPTMQATIEGLNVVHSATRVFGSLYQAQNRRWSNTSLKVMDVDAGDRETVHPLVVTHPGSGRKGLYVNQVYCQRIEGMTDAESKPLLQFLYEHATRFDFTCRVRWKKDQVLVWDNLCTMHRAVPDYAGKFRYLTRTTVGGVRPAR
B2: SEQ ID NO: 6 (protein)
chain: B1 chain with I77V, G104R, W182F
B3: SEQ ID NO: 34 (protein)
chain: B1 chain with I77V, G103L, G104R, W182F
B4: SEQ ID NO: 62 (protein)
chain: B1 chain with I77V, D108C
B5: SEQ ID NO: 22 (protein)
chain: B1 chain with I77V, G104D, W182F
B6: SEQ ID NO: 74 (protein)
chain: B1 chain with I77V, Q219P
B7: SEQ ID NO: 58: RdpA mutant L82H + V187L + F182W + R104G + R180M (protein)
chain: B1 chain with I77V, R180M
B8: SEQ ID NO: 66 (protein)
chain: B1 chain with I77V, D109E
B9: SEQ ID NO: 70 (protein)
chain: B1 chain with I77V, Q219C
B10: SEQ ID NO: 26 (protein)
chain: B1 chain with I77V, G104L, W182F
B11: SEQ ID NO: 18 (protein)
chain: B1 chain with I77V, G104A, W182F
B12: SEQ ID NO: 14 (protein)
chain: B1 chain with I77V, G104R, W182F, L187I
B13: SEQ ID NO: 30 (protein)
chain: B1 chain with I77V, G104R
B14: SEQ ID NO: 54: RdpA mutant L82H + V187L + F182W + R104G + R180W (protein)
chain: B1 chain with I77V, R180W
B15: SEQ ID NO: 10 (protein)
chain: B1 chain with I77V, G104R, W182F, L187M
B16: SEQ ID NO: 122: RdpA mutant L82H + V187L + F182W + G103L + R104G + V105Y (protein)
chain: B1 chain with I77V, G103L, V105Y
B17: SEQ ID NO: 50: RdpA mutant L82H + V187L + F182W + R104G + V80T (protein)
chain: B1 chain with I77V, V80T
B18: SEQ ID NO: 2 (protein)
chain: B1 chain with I77V, G104R, W182F, L187V
B19: SEQ ID NO: 1: Amino acid sequence of RdpA (wild-type R-dichlorprop dioxygenase) (protein)
chain: B1 chain with I77V, H82L, G104R, W182F, L187V
modifications: Sphingobium herbicidovorans
B20: SEQ ID NO: 78: RdpA mutant L82H + V187L + F182W + G103L + R180D (protein)
chain: B1 chain with I77V, G103L, G104R, R180D
B21: SEQ ID NO: 90 (protein)
chain: B1 chain with I77V, G103L, G104R, R180L
B22: SEQ ID NO: 130 (protein)
chain: B1 chain with I77V, T112S, R180M
B23: SEQ ID NO: 110 (protein)
chain: B1 chain with I77V, G103L, G104R, T112M
B24: SEQ ID NO: 98: RdpA mutant L82H + V187L + F182W + G103L + V80T (protein)
chain: B1 chain with I77V, V80T, G103L, G104R
B25: SEQ ID NO: 114 (protein)
chain: B1 chain with I77V, G103L, G104R, F247Y
B26: SEQ ID NO: 94 (protein)
chain: B1 chain with I77V, G103L, G104R, R180W
B27: SEQ ID NO: 134 (protein)
chain: B1 chain with I77V, T112S, R180W

Changes are numbered by the printed parent chain. Numbers in names are those of the source.

Experimental findings from patent US20250163449A1, “HERBICIDE-TOLERANT GENES AND METHOD FOR USING SAME” (QINGDAO KINGAGROOT CHEMICAL COMPOUND CO., LTD., priority 2022, published 2025) are described below.

In general, Km refers to the concentration of substrate that gives half-maximal velocity.

Test system in one series: not listed separately
As to the kind of experiment: Conversion rate of substrate compound A by E. coli expressing each engineered protein (HPLC, oxygenase activity). The format is biochemical. Particulars: Reaction condition 1: bacteria cultured overnight, substrate compound A and IPTG added to react overnight. An excerpt:
The high-throughput bacterial protein expression was achieved by cloning the synthesized gene that encodes each engineered protein into a bacterial expression vector with a C-terminal histidine tag (His-tag). The vectors were transformed into Escherichia coli (E. coli), and expression of the engineered proteins was induced. E. coli cultures were selected and cultured in centrifuge tubes overnight, meanwhile, added with substrates and IPTG, and the cultures were centrifuged to pellet the bacteria the next day. Alternatively, E. coli cultures were selected and cultured in centrifuge tubes overnight, and centrifuged to pellet the bacteria after adding substrates for reaction the next day. The supernatant of reaction solution was pipetted into a 96-well plate and the absorbance at 510 nm from 4-aminoantipyrine and potassium ferricyanide was measured by an endpoint colorimetric method to detect phenol products. Substrate reduction and product yield were measured by high performance liquid chromatography (HPLC) to detect the oxygenase activity (i.e., enzymatic activity) of the engineered proteins, and the activities of the proteins were compared by calculating conversion rates.
Conversion rate=(Peak area of initial substrate−Peak area of substrate after reaction)/Peak area of initial substrate*100%
As to B1, the Conversion rate is on record as 95.8%. B2 showed a Conversion rate of 95.2%. The same measure, in the same setting: the result for B3 reads 90%; that for B4, 90%; that for B5, 95.5%. The same measure, in the same setting: the result for B6 reads 97.2%; that for B7, 90%. In the case of B8, the Conversion rate was found to be 94%.

Turning to B9, the Conversion rate is given as 94%.

On to B10, for which the Conversion rate was found to be 96.8%. B11 showed a Conversion rate of 92.1%.

For B12, the Conversion rate is 76.8%.

Consider B13, for which the Conversion rate amounted to 96.5%. Still for that read-out and setting: the result for B14 reads 92.5%; that for B15, 94.1%. As for B16, the Conversion rate is 94.3%. Still for that read-out and setting: the result for B17 reads 97.2%. The same measure, in the same setting: the result for B18 reads 67.5%; that for B19, 0.06%.

The series is the same for the next values; noted with them: Reaction condition 2: bacteria cultured overnight, 8 times dose of substrate compound A of condition 1 added, react 3 hours the next day.
With B20, the Conversion rate came to 79%. In turn, B21 had a Conversion rate of 57.5%. The same measure, in the same setting: the result for B22 reads 88.3%; that for B23, 54.6%; that for B24, 81%. Same read-out and setting: the result for B25 reads 53%; that for B26, 63.2%. B27 came in with a Conversion rate of 77.6%. Take B19: the Conversion rate is given as 0.06%.

Test system in a further series: not listed separately
As to the kind of experiment: Enzymatic kinetic measurements of purified proteins with compound A as substrate. The format is biochemical. Particulars: purified protein, compound A 0-1000 μM as substrate. On the procedure:
Based on the results of HPLC, representative engineered proteins were selected for protein purification. Further protein characterization, such as Km, Vmax and Kcat, was performed on the 8 engineered proteins from Table 2. Conventional Ni column affinity chromatography was used for protein purification and protein extract purity was assessed by SDS-PAGE analysis. After determining protein concentration by BCA method, enzyme activity was determined.
With B1, the Kcat was 0.43 S^−1, the Km came out at 83.7 µM and the Vmax turned out to be 99.5.

B7: the Kcat worked out at 0.05 S^−1, the Michaelis constant (Km) was 28.3 µM and the Vmax is given as 12.3. On the same counts, the results for B14 are 0.35 S^−1, 96.9 µM and 81. For B16, in that order: 1.1 S^−1, 96.4 µM and 127.9.

Take B17: the Kcat is reported as 0.07 S^−1, the Km was determined as 24.9 µM and the Vmax stood at 15.7.

The next series has as its system Arabidopsis thaliana. Nature of the series: T2 transgenic Arabidopsis thaliana seeds screened on compound A medium. The format is in vivo. The settings on record: 0.15 μM compound A in medium, 11-24 days. An excerpt: Engineered proteins were selected for Arabidopsis thaliana transformation and plant analysis. DNA constructs were transformed into Arabidopsis thaliana using Agrobacterium tumifaciens and standard methods known in the art.
The transformed TO transgenic plantlets grew in the greenhouse. T1 generation Arabidopsis thaliana plant seeds produced by transformation of all constructs were collected after approximately 60 days of growth. Transgenic T1 generation Arabidopsis thaliana plants were screened by adding HYG to medium for T1 generation. T1 plants were selfed to produce seeds of T2 generation Arabidopsis thaliana plants. Wherein, compound A was added to medium to screen and test T2 generation Arabidopsis thaliana plant seeds, that were produced by all constructs, comprising unique events screened by T1 generation.
For B20, the “drug resistance compared with wild-type Arabidopsis thaliana (longer roots and larger leaves)” value is on record as “exhibited better drug resistance”. As for B24, the “drug resistance compared with wild-type Arabidopsis thaliana (longer roots and larger leaves)” value is “exhibited better drug resistance”.
